Measured values from patent US20230295310A1.

Target: human CD3 expressed on cells (human) (UniProt P07766)
Assay: flow cytometry, 25 nM

human CD3 expressed on cells (human), sequence (P07766 23-207, chain 1 of 3): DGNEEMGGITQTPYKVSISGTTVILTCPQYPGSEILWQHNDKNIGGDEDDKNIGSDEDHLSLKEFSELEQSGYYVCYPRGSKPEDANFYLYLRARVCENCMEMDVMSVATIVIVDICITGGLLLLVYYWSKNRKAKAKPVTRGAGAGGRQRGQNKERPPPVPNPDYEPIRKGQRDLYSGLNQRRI
human CD3 expressed on cells (human), sequence (P04234 22-171, chain 2 of 3, further chain): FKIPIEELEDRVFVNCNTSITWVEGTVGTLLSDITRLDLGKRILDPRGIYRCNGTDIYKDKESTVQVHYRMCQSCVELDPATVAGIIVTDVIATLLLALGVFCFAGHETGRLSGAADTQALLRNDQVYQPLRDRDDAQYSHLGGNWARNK
human CD3 expressed on cells (human), sequence (P09693 23-182, chain 3 of 3, further chain): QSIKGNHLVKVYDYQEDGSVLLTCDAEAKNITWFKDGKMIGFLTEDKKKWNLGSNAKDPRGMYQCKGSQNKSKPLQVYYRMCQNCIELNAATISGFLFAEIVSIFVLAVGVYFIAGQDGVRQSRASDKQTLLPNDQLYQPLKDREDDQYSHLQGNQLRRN

B1: mAb 109 (antibody, V domains shown)
VH: QVQLVESGGGVVQPGRSLRLSCVASGFPFRSYGMHWVRQAPGKGLEWVAFIWYDGSNKYYADSVRGRFTISRDNFKKMVYLQMNSLRAEDTAVYYCARDLAGIYAFDVWGQGTVVTVSS
VL: EIVMTQSPATLSVSPGERATLSCRASQSVSSNLAWYQQKPGQAPRLLIYGASTRATGIPARFSGSGSGTEFTLTVSSLQSEDFAIYYCQQYNNWRPLTFGGGTKVEIK
Q: For B1, which Human primary T Cell Binding (FOI) is on record?
A: The Human primary T Cell Binding (FOI) was 1.4 FOI.
